# Experimental data: US20210246166A1 (Bayer, published 2021)
# Numbered stars: 1 amine (or outer) side, 2 acyl side, 3 side chain; on linkers, the order of the positions; unused ones are H or OH. Bridge positions count the residues as written; N and C are the ends. Square brackets hold non-standard residues; d marks the D form. Primed or numbered codes have the meaning given here. Ends that are not written are not given here. TTDS(3) = 1,13-Diamino-4,7,10-trioxatridecan-succinamic acid; NH(CH2CH2O)4CH2CO = O=C(COCCOCCOCCOCCN[*:1])[*:2]; Oic = O=C(O)[C@@H]1C[C@@H]2CCCC[C@@H]2N1; PEG8 = NCCOCCOCCOCCOCCOCCOCCOCCOCCC(=O)O; tBuAla = CC(C)(C)C[C@H](N)C(=O)O; Cit = NC(=O)NCCC[C@H](N)C(=O)O; Pen = CC(C)(S)[C@H](N)C(=O)O; NMeC = CN[C@@H](CS)C(=O)O; PEG3 = NCCOCCOCCOCCC(=O)O; Orn = NCCC[C@H](N)C(=O)O; Aze = O=C(O)[C@@H]1CCN1; Nva = CCC[C@H](N)C(=O)O; Abu = CC[C@H](N)C(=O)O; PEG2 = NCCOCCOCCC(=O)O; Sar = CNCC(=O)O
# B1: (Abu)-IC+SRS-((tBu)A)-PPIC+IPD-NH2 (peptide)
# peptide: [Abu]ICSRS[tBuAla]PPICIPD-NH2
# modifications: disulfide 3-11; N-terminus assumed
# SMILES: CC[C@H](N)C(=O)N[C@H](C(=O)N[C@H]1CSSC[C@@H](C(=O)N[C@H](C(=O)N2CCC[C@H]2C(=O)N[C@@H](CC(=O)O)C(N)=O)[C@@H](C)CC)NC(=O)[C@H]([C@@H](C)CC)NC(=O)[C@@H]2CCCN2C(=O)[C@@H]2CCCN2C(=O)[C@H](CC(C)(C)C)NC(=O)[C@H](CO)NC(=O)[C@H](CCCNC(=N)N)NC(=O)[C@H](CO)NC1=O)[C@@H](C)CC
# B2: LIC+SRS-((tBu)A)-PPI-(Pen)+IPD-NH2 (peptide)
# peptide: LICSRS[tBuAla]PPI[Pen]IPD-NH2
# modifications: disulfide 3-11; N-terminus assumed
# SMILES: CC[C@H](C)[C@H](NC(=O)[C@@H](N)CC(C)C)C(=O)N[C@H]1CSSC(C)(C)[C@@H](C(=O)N[C@H](C(=O)N2CCC[C@H]2C(=O)N[C@@H](CC(=O)O)C(N)=O)[C@@H](C)CC)NC(=O)[C@H]([C@@H](C)CC)NC(=O)[C@@H]2CCCN2C(=O)[C@@H]2CCCN2C(=O)[C@H](CC(C)(C)C)NC(=O)[C@H](CO)NC(=O)[C@H](CCCNC(=N)N)NC(=O)[C@H](CO)NC1=O
# B3: (Nva)-IC+SRS-((tBu)A)-PPI-(Pen)+IPD-NH2 (peptide)
# peptide: [Nva]ICSRS[tBuAla]PPI[Pen]IPD-NH2
# modifications: disulfide 3-11; N-terminus assumed
# SMILES: CCC[C@H](N)C(=O)N[C@H](C(=O)N[C@H]1CSSC(C)(C)[C@@H](C(=O)N[C@H](C(=O)N2CCC[C@H]2C(=O)N[C@@H](CC(=O)O)C(N)=O)[C@@H](C)CC)NC(=O)[C@H]([C@@H](C)CC)NC(=O)[C@@H]2CCCN2C(=O)[C@@H]2CCCN2C(=O)[C@H](CC(C)(C)C)NC(=O)[C@H](CO)NC(=O)[C@H](CCCNC(=N)N)NC(=O)[C@H](CO)NC1=O)[C@@H](C)CC
# B4: (Cit)-IC+SRS-((tBu)A)-PPI-(Pen)+IPD-OH (peptide)
# peptide: [Cit]ICSRS[tBuAla]PPI[Pen]IPD-OH
# modifications: disulfide 3-11; N-terminus assumed
# SMILES: CC[C@H](C)[C@H](NC(=O)[C@@H](N)CCCNC(N)=O)C(=O)N[C@H]1CSSC(C)(C)[C@@H](C(=O)N[C@H](C(=O)N2CCC[C@H]2C(=O)N[C@@H](CC(=O)O)C(=O)O)[C@@H](C)CC)NC(=O)[C@H]([C@@H](C)CC)NC(=O)[C@@H]2CCCN2C(=O)[C@@H]2CCCN2C(=O)[C@H](CC(C)(C)C)NC(=O)[C@H](CO)NC(=O)[C@H](CCCNC(=N)N)NC(=O)[C@H](CO)NC1=O
# B5: AIC+SRSLP-(Oic)-I-(Pen)+IP-NH2 (peptide)
# peptide: AICSRSLP[Oic]I[Pen]IP-NH2
# modifications: disulfide 3-11; N-terminus assumed
# SMILES: CC[C@H](C)[C@H](NC(=O)[C@H](C)N)C(=O)N[C@H]1CSSC(C)(C)[C@@H](C(=O)N[C@H](C(=O)N2CCC[C@H]2C(N)=O)[C@@H](C)CC)NC(=O)[C@H]([C@@H](C)CC)NC(=O)[C@@H]2C[C@@H]3CCCC[C@@H]3N2C(=O)[C@@H]2CCCN2C(=O)[C@H](CC(C)C)NC(=O)[C@H](CO)NC(=O)[C@H](CCCNC(=N)N)NC(=O)[C@H](CO)NC1=O
# B6: ((N-Me)G)-IC+SRS-((tBu)A)-PPI-(Pen)+IP-(PEG2(13 atoms))-NH2 (peptide)
# peptide: [Sar]ICSRS[tBuAla]PPI[Pen]IP[PEG3]-NH2
# modifications: disulfide 3-11; N-terminus assumed
# SMILES: CC[C@H](C)[C@H](NC(=O)CNC)C(=O)N[C@H]1CSSC(C)(C)[C@@H](C(=O)N[C@H](C(=O)N2CCC[C@H]2C(=O)NCCOCCOCCOCCC(N)=O)[C@@H](C)CC)NC(=O)[C@H]([C@@H](C)CC)NC(=O)[C@@H]2CCCN2C(=O)[C@@H]2CCCN2C(=O)[C@H](CC(C)(C)C)NC(=O)[C@H](CO)NC(=O)[C@H](CCCNC(=N)N)NC(=O)[C@H](CO)NC1=O
# B7: ((N-Me)G)-IC+SRS-((tBu)A)-PPI-(Pen)+IP-(PEG4-CH2CO2H (15 atoms))-NH2 (peptide)
# peptide: [Sar]ICSRS[tBuAla]PPI[Pen]IP[NH(CH2CH2O)4CH2CO]-NH2
# modifications: disulfide 3-11; N-terminus assumed
# SMILES: CC[C@H](C)[C@H](NC(=O)CNC)C(=O)N[C@H]1CSSC(C)(C)[C@@H](C(=O)N[C@H](C(=O)N2CCC[C@H]2C(=O)NCCOCCOCCOCCOCC(N)=O)[C@@H](C)CC)NC(=O)[C@H]([C@@H](C)CC)NC(=O)[C@@H]2CCCN2C(=O)[C@@H]2CCCN2C(=O)[C@H](CC(C)(C)C)NC(=O)[C@H](CO)NC(=O)[C@H](CCCNC(=N)N)NC(=O)[C@H](CO)NC1=O
# B8: ((N-Me)G)-IC+SRSLP-(Oic)-I-(Pen)+IP-(PEG1(10 atoms))-NH2 (peptide)
# peptide: [Sar]ICSRSLP[Oic]I[Pen]IP[PEG2]-NH2
# modifications: disulfide 3-11; N-terminus assumed
# SMILES: CC[C@H](C)[C@H](NC(=O)CNC)C(=O)N[C@H]1CSSC(C)(C)[C@@H](C(=O)N[C@H](C(=O)N2CCC[C@H]2C(=O)NCCOCCOCCC(N)=O)[C@@H](C)CC)NC(=O)[C@H]([C@@H](C)CC)NC(=O)[C@@H]2C[C@@H]3CCCC[C@@H]3N2C(=O)[C@@H]2CCCN2C(=O)[C@H](CC(C)C)NC(=O)[C@H](CO)NC(=O)[C@H](CCCNC(=N)N)NC(=O)[C@H](CO)NC1=O
# B9: (Orn)-IC+SRS-((tBu)A)-PPI-((N-Me)C)+IPD-NH2 (peptide)
# peptide: [Orn]ICSRS[tBuAla]PPI[NMeC]IPD-NH2
# modifications: disulfide 3-11; N-terminus assumed
# SMILES: CC[C@H](C)[C@H](NC(=O)[C@@H](N)CCCN)C(=O)N[C@H]1CSSC[C@@H](C(=O)N[C@H](C(=O)N2CCC[C@H]2C(=O)N[C@@H](CC(=O)O)C(N)=O)[C@@H](C)CC)N(C)C(=O)[C@H]([C@@H](C)CC)NC(=O)[C@@H]2CCCN2C(=O)[C@@H]2CCCN2C(=O)[C@H](CC(C)(C)C)NC(=O)[C@H](CO)NC(=O)[C@H](CCCNC(=N)N)NC(=O)[C@H](CO)NC1=O
# B10: KIC+SRS-((tBu)A)-PPI-((N-Me)C)+I-NH2 (peptide)
# peptide: KICSRS[tBuAla]PPI[NMeC]I-NH2
# modifications: disulfide 3-11; N-terminus assumed
# SMILES: CC[C@H](C)[C@H](NC(=O)[C@@H]1CSSC[C@H](NC(=O)[C@@H](NC(=O)[C@@H](N)CCCCN)[C@@H](C)CC)C(=O)N[C@@H](CO)C(=O)N[C@@H](CCCNC(=N)N)C(=O)N[C@@H](CO)C(=O)N[C@@H](CC(C)(C)C)C(=O)N2CCC[C@H]2C(=O)N2CCC[C@H]2C(=O)N[C@@H]([C@@H](C)CC)C(=O)N1C)C(N)=O
# B11: WIC+SRS-((tBu)A)-PPI-(Pen)+IPD-NH2 (peptide)
# peptide: WICSRS[tBuAla]PPI[Pen]IPD-NH2
# modifications: disulfide 3-11; N-terminus assumed
# SMILES: CC[C@H](C)[C@H](NC(=O)[C@@H](N)Cc1c[nH]c2ccccc12)C(=O)N[C@H]1CSSC(C)(C)[C@@H](C(=O)N[C@H](C(=O)N2CCC[C@H]2C(=O)N[C@@H](CC(=O)O)C(N)=O)[C@@H](C)CC)NC(=O)[C@H]([C@@H](C)CC)NC(=O)[C@@H]2CCCN2C(=O)[C@@H]2CCCN2C(=O)[C@H](CC(C)(C)C)NC(=O)[C@H](CO)NC(=O)[C@H](CCCNC(=N)N)NC(=O)[C@H](CO)NC1=O
# B12: (Nva)-IC+SRS-((tBu)A)-PPI-(((N-Me)C))+I-NH2 (peptide)
# peptide: [Nva]ICSRS[tBuAla]PPI[NMeC]I-NH2
# modifications: disulfide 3-11; N-terminus assumed
# SMILES: CCC[C@H](N)C(=O)N[C@H](C(=O)N[C@H]1CSSC[C@@H](C(=O)N[C@H](C(N)=O)[C@@H](C)CC)N(C)C(=O)[C@H]([C@@H](C)CC)NC(=O)[C@@H]2CCCN2C(=O)[C@@H]2CCCN2C(=O)[C@H](CC(C)(C)C)NC(=O)[C@H](CO)NC(=O)[C@H](CCCNC(=N)N)NC(=O)[C@H](CO)NC1=O)[C@@H](C)CC
# Target: T1, recombinant human MASP1 active protease (amino acids 297-699, C-terminal His Tag) (human, UniProt P48740 297-699)
# T1 sequence: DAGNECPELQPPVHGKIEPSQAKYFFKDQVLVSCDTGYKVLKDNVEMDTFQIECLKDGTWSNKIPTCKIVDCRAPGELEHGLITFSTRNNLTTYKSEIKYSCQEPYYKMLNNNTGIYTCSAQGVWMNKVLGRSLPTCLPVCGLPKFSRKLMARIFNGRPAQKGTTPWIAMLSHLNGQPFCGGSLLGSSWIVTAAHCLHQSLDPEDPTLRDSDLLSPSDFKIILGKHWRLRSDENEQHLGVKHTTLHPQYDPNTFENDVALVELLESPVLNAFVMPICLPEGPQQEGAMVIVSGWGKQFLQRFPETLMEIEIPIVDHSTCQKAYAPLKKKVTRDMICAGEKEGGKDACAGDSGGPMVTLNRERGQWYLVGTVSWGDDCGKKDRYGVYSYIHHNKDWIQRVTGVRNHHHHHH
# Assay: cell-based or functional assay
row,Binder,human MASP1 IC50 [nM]
1,B1,2.2
2,[Sar]ICSRSLP[Oic]I[Pen]IP-NH2 (disulfide 3-11; also: HCl salt) [((N-Me)G)-IC+SRSLP-(Oic)-I-(Pen)+IP-NH2 (HCl salt)],2.2
3,B2,2.2
4,B3,2.2
5,B4,2.2
6,B5,2.2
7,B6,2.2
8,B7,2.2
9,[Sar]ICSRS[tBuAla]PPI[Pen]IP-{PEG8-NH2} (disulfide 3-11) [((N-Me)G)-IC+SRS-((tBu)A)-PPI-(Pen)+IP-(PEG8(28 atoms))-NH2],2.2
10,B8,2.3
11,B9,2.4
12,[Orn]ICSRS[tBuAla]PPI[NMeC]IPD-NH2 (disulfide 3-11; also: HCl salt) [(Orn)-IC+SRS-((tBu)A)-PPI-((N-Me)C)+IPD-NH2 (HCl salt)],2.4
13,B10,2.4
14,B11,2.4
15,[Aze]ICSRS[tBuAla]PPI[Pen]IPD-NH2 (disulfide 3-11) [(Azetidine-2-carboxylic acid)-IC+SRS-((tBu)A)-PPI-(Pen)+IPD-NH2],2.4
16,[Sar]ICSRSLP[Oic]I[Pen]IP[PEG5‑CH2CO2H (18 atoms)]-NH2 (disulfide 3-11) [((N-Me)G)-IC+SRSLP-(Oic)-I-(Pen)+IP-(PEG5-CH2CO2H (18 atoms))-NH2],2.4
17,B12,1.1
18,[Sar]ICSRS[tBuAla]PPI[Pen]IP-{TTDS(3)-NH2} (disulfide 3-11) [((N-Me)G)-IC+SRS-((tBu)A)-PPI-(Pen)+IP-(TTDS)-NH2],2.4

# Target: recombinant human MASP2 active protease (amino acids 297-686, C-terminal His Tag) (human, UniProt O00187 297-686)
# Sequence (O00187 other isoform, or with tags, fused parts or gaps limits assumed): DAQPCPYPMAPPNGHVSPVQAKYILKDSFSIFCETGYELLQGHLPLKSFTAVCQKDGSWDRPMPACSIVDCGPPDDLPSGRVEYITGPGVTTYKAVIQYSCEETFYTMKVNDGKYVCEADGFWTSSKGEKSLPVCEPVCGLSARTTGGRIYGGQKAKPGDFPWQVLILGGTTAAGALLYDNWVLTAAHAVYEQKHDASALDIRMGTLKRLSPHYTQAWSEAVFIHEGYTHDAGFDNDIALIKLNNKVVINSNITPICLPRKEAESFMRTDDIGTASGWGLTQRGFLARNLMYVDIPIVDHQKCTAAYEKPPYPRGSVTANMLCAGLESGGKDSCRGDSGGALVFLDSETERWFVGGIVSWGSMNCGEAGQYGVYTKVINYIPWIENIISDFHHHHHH
# Assay: cell-based or functional assay
row,Binder,human MASP2 IC50 [nM]
1,B1,120
2,[Sar]ICSRSLP[Oic]I[Pen]IP-NH2 (disulfide 3-11; also: HCl salt) [((N-Me)G)-IC+SRSLP-(Oic)-I-(Pen)+IP-NH2 (HCl salt)],43
3,B2,70
4,B3,51
5,B4,65
6,B5,63
7,B6,42
8,B7,30
9,[Sar]ICSRS[tBuAla]PPI[Pen]IP-{PEG8-NH2} (disulfide 3-11) [((N-Me)G)-IC+SRS-((tBu)A)-PPI-(Pen)+IP-(PEG8(28 atoms))-NH2],52
10,B8,87
11,B9,150
12,[Orn]ICSRS[tBuAla]PPI[NMeC]IPD-NH2 (disulfide 3-11; also: HCl salt) [(Orn)-IC+SRS-((tBu)A)-PPI-((N-Me)C)+IPD-NH2 (HCl salt)],170
13,B10,110
14,B11,64
15,[Aze]ICSRS[tBuAla]PPI[Pen]IPD-NH2 (disulfide 3-11) [(Azetidine-2-carboxylic acid)-IC+SRS-((tBu)A)-PPI-(Pen)+IPD-NH2],68
16,[Sar]ICSRSLP[Oic]I[Pen]IP[PEG5‑CH2CO2H (18 atoms)]-NH2 (disulfide 3-11) [((N-Me)G)-IC+SRSLP-(Oic)-I-(Pen)+IP-(PEG5-CH2CO2H (18 atoms))-NH2],110
17,B12,50
18,[Sar]ICSRS[tBuAla]PPI[Pen]IP-{TTDS(3)-NH2} (disulfide 3-11) [((N-Me)G)-IC+SRS-((tBu)A)-PPI-(Pen)+IP-(TTDS)-NH2],58
